Assay [1] has as its target T1, human TROP2-his protein (human, UniProt P09758 27-274).
T1 construct: also called biotin labeled human TROP2-his protein
T1 sequence: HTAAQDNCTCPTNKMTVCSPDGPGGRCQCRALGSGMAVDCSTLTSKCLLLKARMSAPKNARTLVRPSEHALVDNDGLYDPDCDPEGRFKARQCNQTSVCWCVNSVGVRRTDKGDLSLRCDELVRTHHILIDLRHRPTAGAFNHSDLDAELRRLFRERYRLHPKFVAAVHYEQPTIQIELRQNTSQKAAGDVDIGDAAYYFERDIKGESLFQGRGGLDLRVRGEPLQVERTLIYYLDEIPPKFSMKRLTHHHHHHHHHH
Kind of assay: indirect ELISA, plate coated with human TROP2-his; unit taken from the x axis (Con of mAb, ng/mL). The method, then:
The single domain antibodies of the disclosure were tested in the indirect ELISA for their cross-reaction with cynomolgus TROP2 protein. Briefly, 96-well micro plates were coated with 100 μl 2 μg/ml human TROP2-his protein (prepared in-house with SEQ ID NO: 16) in carbonate/bicarbonate buffer (pH 9.6) overnight at 4° C. ELISA plates were washed once with wash buffer (PBS+0.05% v/v Tween-20, PBST) and then blocked with 200 μl/well blocking buffer (5% w/v non-fatty milk in PBST) for 2 hours at 37° C. Plates were washed 4 times and incubated with 100 μl/well serially diluted anti-TROP2 antibodies of the disclosure or controls (starting at 66.7 nM, 5-fold serial dilution in 2.5% w/v non-fatty milk in PBST) for 40 minutes at 37° C. ELISA plates were washed 4 times again and incubated with Peroxidase AffiniPure F(ab′)₂ Fragment Goat Anti-Human IgG, Fey fragment specific (Jackson Immuno Research, Cat #109-036-098, 1:5000 dilution in PBST buffer, 100 μl/well) for 40 minutes at 37° C. After a final wash, plates were incubated with 100 μl/well TMB (Innoreagents) at room temperature. The reaction was stopped 3-10 minutes later at room temperature with 50 μl/well 1M H₂SO₄, and the absorbance of each well was read on a microplate reader using dual wavelength mode with 450 nm for TMB and 630 nm as the reference wavelength. The OD (450-630) values were plotted against antibody concentration. Data was analyzed using Graphpad Prism software and EC₅₀ values were reported.

Assay [2] has as its target T2, cynomolgus TROP2-his protein (cynomolgus, UniProt P09758 27-272 (human entry), limits assumed).
T2 construct: also called Cyno TROP2-his; Cynomolgus monkey TROP2-his protein
T2 chain: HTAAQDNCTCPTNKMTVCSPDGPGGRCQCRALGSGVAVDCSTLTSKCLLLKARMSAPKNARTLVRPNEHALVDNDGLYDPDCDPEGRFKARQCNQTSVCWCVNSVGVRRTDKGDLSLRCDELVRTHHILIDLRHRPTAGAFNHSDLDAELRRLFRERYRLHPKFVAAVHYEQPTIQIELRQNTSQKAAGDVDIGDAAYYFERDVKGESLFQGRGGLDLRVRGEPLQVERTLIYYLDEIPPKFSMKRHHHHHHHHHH
As to the kind of experiment: indirect ELISA on cynomolgus TROP2; unit taken from the x axis (nM). (ELISA stands for enzyme-linked immunosorbent assay.)

The target in assay [3] is T2, cynomolgus TROP2-his protein. As to the kind of experiment: SPR Biacore; antibody captured on anti-human IgG chip, TROP2-his as analyte. A general note: SPR reads the build-up and loss of mass on a sensor chip optically.
Assay [4] concerns the target T1, human TROP2-his protein. The description is as above.
The target of assay [5] is T1, human TROP2-his protein. As to the kind of experiment: capture ELISA: antibody captured on anti-human IgG Fc coated plate, biotin labeled human TROP2-his detected with streptavidin-HRP; unit taken from the x axis (nM). The method, then: For the capture ELISA, 96-well plates were coated with 100 μl 2 μg/ml AffiniPure F(ab′)₂ Fragment GoatAnti-Human IgG, Fey fragment specific (Jackson Immuno Research, Cat #109-006-008) in PBS overnight at 4° C. Plates were washed once with wash buffer (PBS+0.05% v/v Tween-20, PBST) and then blocked with 200 μl/well blocking buffer (5% w/v non-fatty milk in PBST) for 2 hours at 37° C. Plates were washed 4 times and respectively incubated with 100 μl serially diluted anti-TROP2 antibodies of the disclosure, the benchmark or negative control hIgG (human immunoglobulin (pH4) for intravenous injection, Hualan Biological Engineering Inc.) (5-fold dilution in 2.5% w/v non-fatty milk in PBST, starting at 66.7 nM) for 40 minutes at 37° C., and then washed 4 times again. […] The reaction was stopped in 3-10 minutes at room temperature with 50 μl/well 1M H₂SO₄, and the absorbance of each well was read on a microplate reader using dual wavelength mode with 450 nm for TMB and 630 nm as the reference wavelength. […] Data was analyzed using Graphpad Prism software and EC₅₀ values were reported.

Results on two molecules are retold here after US20230383007A1 (BIOSION, published 2023).

B1: sacituzumab (benchmark, an analog of sacituzumab, in house made) (antibody, human IgG1, kappa, V domains shown)
VH: SVQLQQSGSELKKPGASVKVSCKASGYTFTNYGMNWVKQAPGQGLKWMGWINTYTGEPTYTDDFKGRFAFSLDTSVSTAYLQISSLKADDTAVYFCARGGFGSSYWYFDVWGQGSLVTVSS
VL: DIQLTQSPSSLSASVGDRVSITCKASQDVSIAVAWYQQKPGKAPKLLIYSASYRYTGVPDRFSGSGSGTDFTLTISSLQPEDFAVYYCQQHYITPLTFGAGTKVEIKR
notes: also called BM; BM1
Broadly, the EC50 is the midpoint of the concentration-response curve. As a reminder, the Kd is the equilibrium constant for the complex coming apart. As a reminder, the koff is a measure of how fast the partners let go of each other. A higher koff goes with fast dissociation. A word on the kon: it is a measure of how fast the partners come together. Higher therefore signals faster complex formation. Turning to B1, the EC50 is 0.0374 mg/L in assay [1], 0.161 nM in assay [2] and 0.269 nM in assay [5]. Further, the figures for the Kd in assay [3] and in assay [4] were 0.436 nM and 0.554 nM, respectively. The koff in assay [3] came to 0.000228 s⁻¹; in assay [4] it was 0.000286 s⁻¹. Besides, the kon in assay [3] was determined as 522000 M⁻¹ s⁻¹; in assay [4], 516000 M⁻¹ s⁻¹.

B2: single domain antibody 01-9F (VHH)
VHH: QVQLVESGGGSVQAGGSLRLSCVVSGLPYERYCVAWFRQGPGKEREGVARILSDGTTSYSDSVKGRFTISKDNAKNTLYLQMNSLKSEDTATYYCAAEAFRPFTPSDGDCTTVLGIDYWGKGTPVTVSS
Take B2: the results for the EC50 in assay [1], in assay [2] and in assay [5] were 0.0208 mg/L, 0.107 nM and 0.164 nM, respectively. The Kd came to 0.285 nM in assay [3] and 0.291 nM in assay [4]. Besides, the koff in assay [3] is 0.00015 s⁻¹; in assay [4], 0.00017 s⁻¹. For the same molecule, the kon in assay [3] was found to be 525000 M⁻¹ s⁻¹; in assay [4], 586000 M⁻¹ s⁻¹.
